Literature values as cited in article PMC5709052.
Read-outs that look alike come from different tables or passages of the source.

Columns and labels:
[1] = biological target: CYP102A1 reductase domain (BMR) reductase domain (Priestia megaterium) (UniProt P14779)
[2] = biological target: CYP102A1 reductase domain (BMR) reductase domain (Priestia megaterium) (UniProt P14779); remark: listed apart in the source
[3] = biological target: CYP102A1 reductase domain (BMR) reductase domain (Priestia megaterium) (UniProt P14779); assay: absorption spectroscopy titration
[4] = biological target: CYP102A1 reductase domain (BMR) reductase domain (Priestia megaterium) (UniProt P14779); assay: absorption spectroscopy titration; remark: listed apart in the source

Chain of UniProt P14779 (P14779 473-1049): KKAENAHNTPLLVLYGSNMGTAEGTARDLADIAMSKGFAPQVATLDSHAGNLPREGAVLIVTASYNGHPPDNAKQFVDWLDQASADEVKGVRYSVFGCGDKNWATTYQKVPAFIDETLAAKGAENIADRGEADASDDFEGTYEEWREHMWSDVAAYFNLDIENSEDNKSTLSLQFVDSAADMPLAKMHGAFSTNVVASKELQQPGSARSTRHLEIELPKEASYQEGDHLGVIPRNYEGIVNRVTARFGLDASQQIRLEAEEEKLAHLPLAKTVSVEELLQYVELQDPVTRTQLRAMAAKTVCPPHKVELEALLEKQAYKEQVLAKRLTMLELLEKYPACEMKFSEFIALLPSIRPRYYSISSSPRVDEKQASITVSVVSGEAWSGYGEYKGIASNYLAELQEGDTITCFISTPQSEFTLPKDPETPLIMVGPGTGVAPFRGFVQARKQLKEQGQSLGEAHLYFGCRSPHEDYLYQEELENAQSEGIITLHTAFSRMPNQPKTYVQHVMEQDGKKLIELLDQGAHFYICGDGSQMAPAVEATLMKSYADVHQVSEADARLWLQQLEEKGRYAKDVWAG

| Substance | Kd [1] [nM] | Kd [2] [nM] | Kd [3] [nM] | Kd [4] [nM] |
| --- | --- | --- | --- | --- |
| CYP2B4 (from UniProt P00178) | 370 | – | – | – |
| CYP3A4 (from UniProt P08684) | – | 480 | 140 | 100 |
